From patent US20100260765A1 (AstraZeneca / MedImmune, published 2010)

Key:
[1] = target: T1, soluble KDR extracellular domain (ECD) (Calbiochem) (human, UniProt P35968 20-764); test: High Antigen ELISA, KDR coat 500 ng/mL, supernatant 1:6075
T1 construct: extracellular domain; Bought protein; also called KDR-ECD; VEGF Receptor 2 D1-7, Cat. #676490

[2] = target: T1, soluble KDR extracellular domain (ECD) …; test: High Antigen ELISA, KDR coat 500 ng/mL, supernatant 1:2025
[3] = target: T1, soluble KDR extracellular domain (ECD) …; test: High Antigen ELISA, KDR coat 500 ng/mL, supernatant 1:675
[4] = target: T1, soluble KDR extracellular domain (ECD) …; test: Limited Antigen ELISA, KDR coat 50 ng/mL, supernatant 1:25
Description: (§1) Samples containing one concentration of antibody (Ab) (1:25 dilution) were incubated overnight to allow Ab binding to approach equilibrium. The low antigen concentration limited the effect of antibody concentration, allowing ranking of the antibodies based on their relative affinity.

[5] = target: T1, soluble KDR extracellular domain (ECD) …; test: Limited Antigen ELISA, KDR coat 12.5 ng/mL, supernatant 1:25
Description: as §1

[6] = target: T1, soluble KDR extracellular domain (ECD) …; test: Limited Antigen ELISA, KDR coat 25 ng/mL, supernatant 1:25
Description: as §1

[7] = target: T1, soluble KDR extracellular domain (ECD) …; test: Limited Antigen ELISA, KDR coat 6.25 ng/mL, supernatant 1:25
Description: as §1

[8] = target: T1, soluble KDR extracellular domain (ECD) …; test: Limited Antigen ELISA, KDR coat 3.125 ng/mL, supernatant 1:25
Description: as §1

[9] = target: KDR endogenously expressed on human umbilical vein endothelial cells (HUVEC) (human, UniProt P35968 20-1356); test: cell-based or functional assay
[10] = target: T1, soluble KDR extracellular domain (ECD) …; test: High Antigen ELISA, KDR coat 500 ng/mL, supernatant 1:75
[11] = target: T1, soluble KDR extracellular domain (ECD) …; test: High Antigen ELISA, KDR coat 500 ng/mL, supernatant 1:18,225
[12] = target: T1, soluble KDR extracellular domain (ECD) …; test: High Antigen ELISA, KDR coat 500 ng/mL, supernatant 1:225
[13] = target: T1, soluble KDR extracellular domain (ECD) …; test: High Antigen ELISA, KDR coat 500 ng/mL, supernatant 1:25

T1 sequence (P35968 20-764): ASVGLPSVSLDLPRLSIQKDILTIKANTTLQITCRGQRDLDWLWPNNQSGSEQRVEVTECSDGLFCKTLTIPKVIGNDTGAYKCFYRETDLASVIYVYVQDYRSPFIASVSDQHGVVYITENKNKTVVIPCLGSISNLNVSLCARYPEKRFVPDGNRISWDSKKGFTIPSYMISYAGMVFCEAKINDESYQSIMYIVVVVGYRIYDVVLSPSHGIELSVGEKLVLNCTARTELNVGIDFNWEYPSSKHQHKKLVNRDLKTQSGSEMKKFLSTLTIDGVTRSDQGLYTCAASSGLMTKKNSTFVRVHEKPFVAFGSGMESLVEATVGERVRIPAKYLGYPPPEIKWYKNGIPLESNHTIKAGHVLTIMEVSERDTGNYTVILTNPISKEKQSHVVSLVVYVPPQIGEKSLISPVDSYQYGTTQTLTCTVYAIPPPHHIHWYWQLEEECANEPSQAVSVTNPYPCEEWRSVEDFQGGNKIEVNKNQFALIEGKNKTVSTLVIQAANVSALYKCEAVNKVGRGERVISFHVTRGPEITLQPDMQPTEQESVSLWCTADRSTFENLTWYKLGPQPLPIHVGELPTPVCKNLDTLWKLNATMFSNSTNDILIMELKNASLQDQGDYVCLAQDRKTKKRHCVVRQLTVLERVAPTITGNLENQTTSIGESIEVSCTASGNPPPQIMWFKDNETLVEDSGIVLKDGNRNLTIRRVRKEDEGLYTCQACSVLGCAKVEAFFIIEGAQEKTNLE
Sequence of KDR endogenously expressed on human umbilical vein endothelial cells (HUVEC) (P35968 20-1356): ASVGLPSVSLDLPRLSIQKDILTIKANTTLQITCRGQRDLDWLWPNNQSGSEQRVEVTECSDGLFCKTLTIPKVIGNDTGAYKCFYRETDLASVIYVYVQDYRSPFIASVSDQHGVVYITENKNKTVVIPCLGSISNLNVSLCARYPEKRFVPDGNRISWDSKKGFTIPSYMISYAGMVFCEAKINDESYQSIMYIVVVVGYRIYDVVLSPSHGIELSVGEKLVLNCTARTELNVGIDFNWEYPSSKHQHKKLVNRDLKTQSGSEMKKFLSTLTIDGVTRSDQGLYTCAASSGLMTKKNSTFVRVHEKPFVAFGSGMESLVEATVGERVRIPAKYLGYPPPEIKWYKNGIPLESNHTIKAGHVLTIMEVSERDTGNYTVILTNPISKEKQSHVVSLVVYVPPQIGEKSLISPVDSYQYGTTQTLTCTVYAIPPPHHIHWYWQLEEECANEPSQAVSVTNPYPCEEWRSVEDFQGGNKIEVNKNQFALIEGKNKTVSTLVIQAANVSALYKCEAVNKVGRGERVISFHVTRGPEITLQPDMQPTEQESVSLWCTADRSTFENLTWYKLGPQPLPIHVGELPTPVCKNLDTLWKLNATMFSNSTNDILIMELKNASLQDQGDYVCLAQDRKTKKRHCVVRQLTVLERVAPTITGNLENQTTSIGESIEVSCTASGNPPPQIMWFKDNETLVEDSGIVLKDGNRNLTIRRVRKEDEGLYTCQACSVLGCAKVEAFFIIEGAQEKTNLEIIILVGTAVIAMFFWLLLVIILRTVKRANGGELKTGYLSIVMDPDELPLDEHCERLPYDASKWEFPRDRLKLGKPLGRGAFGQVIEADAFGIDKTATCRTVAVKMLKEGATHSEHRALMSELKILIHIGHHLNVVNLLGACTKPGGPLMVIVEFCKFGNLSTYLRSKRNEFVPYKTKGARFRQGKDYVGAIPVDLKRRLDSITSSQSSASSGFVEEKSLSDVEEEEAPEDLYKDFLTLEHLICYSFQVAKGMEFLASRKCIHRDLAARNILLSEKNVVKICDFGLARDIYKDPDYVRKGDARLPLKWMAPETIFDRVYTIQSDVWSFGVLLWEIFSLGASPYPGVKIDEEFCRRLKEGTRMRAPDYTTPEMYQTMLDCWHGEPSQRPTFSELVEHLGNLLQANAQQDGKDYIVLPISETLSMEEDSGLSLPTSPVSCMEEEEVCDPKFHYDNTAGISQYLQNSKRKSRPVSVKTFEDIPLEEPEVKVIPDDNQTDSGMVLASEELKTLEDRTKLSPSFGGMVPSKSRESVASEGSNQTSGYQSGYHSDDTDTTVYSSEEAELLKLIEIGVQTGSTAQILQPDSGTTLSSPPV

Binder | ELISA reading [1] | ELISA reading [2] | ELISA reading [3] | ELISA reading [4] | ELISA reading [5] | ELISA reading [6] | ELISA reading [7] | ELISA reading [8] | VEGF-E-mediated Survival % Inhibition (Average) [9] [%] | VEGF-E-mediated Survival % Inhibition (n = 1) [9] [%] | VEGF-E-mediated Survival % Inhibition (n = 2) [9] [%] | ELISA reading [10] | ELISA reading [11] | ELISA reading [12] | ELISA reading [13]
29H3 (antibody, V domains shown, Fully human mAb from XenoMouse hybridoma, tested as hybridoma supernatant) VH: QVQLVQSGAEVKKPGASVKVSCKASGYTFTSYDINWVRQATGQGLEWMGWMNPNSGKTGYAQKFQGRVTMTRNTSINTAYMELSSLRSEDTAVYYCARGGYSNLGWFDPWGQGTLVTVSS VL: DIQMTQSPSSVSASVGDRVTITCRASQGISSWLVWYHQKPGKAPKLLIYGASSLQSGVPSRFSGSGSGTDFTLTISSLQPEDFATYYCQQANNFPFTFGPGTKVDIK | 0.47 | 1.42 | 2.83 | 2.13 | 0.4 | 1.03 | 0.24 | 0.16 | -15 | -19 | -11 | 4.96 | 0.21 | 4.29 | 4.52
33D5 (antibody, V domains shown, Fully human mAb from XenoMouse hybridoma, tested as hybridoma supernatant) VH: QVQLVQSGAEVKKPGASVKVSCKASGYTFGSYDINWVRQATGQGLEWMGWMNPNSGNTGYAQKFQGRVTLTRNTSIRTVYMELSSLRSEDTAVYYCARGGYSNLGWFDPWGQGSLVTVSS VL: DIQMTQSPSSVSVSVGDRVTITCRASQGISSWLAWYQQKPGKAPKLLIYAASSLQSGVPSRFSGSGSGTDFTLTISSLQPEDFATYYCQQANSFPFTFGPGTKVDIK | 1.7 | 3.65 | 6 | 3.81 | 1.32 | 2.2 | 0.61 | 0.33 | 0 | -2 | 2 | 4.56 | 0.87 | 4.78 | 4.61
29F7 (antibody, V domains shown, Fully human mAb from XenoMouse hybridoma, tested as hybridoma supernatant) VH: QVQLVQSGAEVKKPGASVKVSCKASGYTFTSYDINWVRQATGQGLEWMGWMNPNSGKTGYAQKFQGRVTMTRSTSISTAYMELSSLRSEDTAVYYCARGGYSNLGWFDPWGQGTLVTVSS VL: DIQMTQSPSSVFASVGDRVTITCRASQGISTWLAWYQQKPGKAPKFLIYAASSLQSGVPSRFSGSGSGTDFTLTISSLQPDDFATYYCQQANNFPFTFGPGTKVDIK | 0.57 | 1.68 | 3.76 | 3.54 | 1 | 2.19 | 0.51 | 0.25 | 11 | 15 | 6 | 4.49 | 0.22 | 4.26 | 4.42
29A3 (antibody, V domains shown, Fully human mAb from XenoMouse hybridoma, tested as hybridoma supernatant) VH: QVQLQESGPGLVKPSETLSLTCTVSGGSISSYFWSWIRQPAGKGLEWIGRIYFSGRTNYNPSLKSRVTMSVETSKNQFSLKLNSVTAADTAVYYCARDGGWNYDVAFDYWGQGTLVTVSS VL: QAVLTQPSSLSASPGASASLTCTLRSGINVGTYRIYWYQQKPGSPPQYLLRYKSDSDQLQGSGVPSRFSGSKDASANAGILLISGLQSEDEADYYCMVWHSNTWVFGGGTKLTVL | 0.57 | 1.91 | 3.32 | 2.27 | 0.49 | 1.13 | 0.27 | 0.16 | -10 | -1 | -20 | 4.06 | 0.24 | 3.85 | 3.89
32B2 (antibody, V domains shown, Fully human mAb from XenoMouse hybridoma, tested as hybridoma supernatant) VH: EVQLLESGGGLVQPGGSLRLSCAASGFTFSNYAMSWVRQAPGKGLDWVSAISGRGGSTYYADSVKGRFTISRDNSKNTLFLLMNSLRAEDTAVYYCAKASGDDWGQGTLVTVSS VL: not shown | 1.54 | 3.33 | 6 | 2.9 | 0.86 | 1.69 | 0.42 | 0.25 | -6 | -2 | -9 | 6 | 0.8 | 6 | 6
29A11 (antibody, V domains shown, Fully human mAb from XenoMouse hybridoma, tested as hybridoma supernatant) VH: EVQLLESGGGLVQPGGSLRLSCAASGFTFSNYAMNWVRQAPGKGLEWVSAISGGGGNTYYADSVKGRFTISRDNSKNTLYLQMNRLRAEDTAVYYCAKASGDDWGQGTLVTVSS VL: not shown | 2.16 | 4.33 | 5.09 | 3.43 | 1.05 | 1.9 | 0.59 | 0.3 | 5 | 8 | 1 | 6 | 0.99 | 6 | 4.66
30E3 (antibody, V domains shown, Fully human mAb from XenoMouse hybridoma, tested as hybridoma supernatant) VH: EVQLLESGGGLVQPGGSLRLSCAASGFTFSNYALSWVRQAPGKGLEWVSAISGSGRNTYYADSVKGRFTLSRDNSKNTLFLQMNSLRAEDTAVYYCAKASGDNWGQGTLVTVSS VL: not shown | 0.32 | 0.86 | 2.12 | 2.71 | 0.73 | 1.37 | 0.43 | 0.24 | -14 | -21 | -7 | 4.78 | 0.18 | 4.45 | 6
30H10 (antibody, V domains shown, Fully human mAb from XenoMouse hybridoma, tested as hybridoma supernatant) VH: EVQLLESGGGLVQPGGSLRLSCAASGFTFSNYAMSWVRQAPGKGLEWVSAISGSGGITYYADSVKGRFTISRDNSKNTLFLQMNSLRAEDTAVYYCAKASGDNWGQGTLVSVSS VL: not shown | 1.18 | 2.52 | 4.61 | 2.21 | 0.52 | 1.18 | 0.31 | 0.17 | -10 | -21 | 2 | 6 | 0.64 | 6 | 4.42
32C11 (antibody, V domains shown, Fully human mAb from XenoMouse hybridoma, tested as hybridoma supernatant) VH: EVQLLESGGTLVQPGGSLRLSCAASGFTFSNYAMSWVRQAPGKGLEWVSAISGRAGSTYYADSVKGRFTISRDNSKNTLFLQMNSLRAEDTAVYYCAKASGDDWGQGTLVTVSS VL: not shown | 0.27 | 0.82 | 2.02 | 2.48 | 0.69 | 1.12 | 0.35 | 0.2 | 6 | 5 | 7 | 6 | 0.14 | 4.28 | 4.36
32F4 (antibody, V domains shown, Fully human mAb from XenoMouse hybridoma, tested as hybridoma supernatant) VH: QLQLQESGPGLVKPSGTLSLSCTVSGGSISSRSDYWGWIRQPPGKGLEWIGTIYYSGNTFYNPSLKSRVTISVDTSKKQFSLKLSSVTAADTAVYYCARQQLVLYYFDYWGQGTLVTVSS VL: EIVLTQSPGTLSLSPGERATLSCRTSQSVSSSYLAWYQQKPGQAPRLLIYGASSRATGVPDRFSGSGSGTDFSLTISRLEPEDFAVYYCQQYGSSPPLTFGGGTKVEIK | 0.97 | 2.71 | 4.61 | 2.22 | 0.74 | 1.09 | 0.36 | 0.23 | 64 | 64 | 64 | 5.56 | 0.5 | 6 | 4.79
